Results taken from patent publication US10907134B2, “Mutated genes for the catalytic protein of oplophorus luciferase and use thereof” (JNC CORPORATION, priority 2013, dated 2021).
Numbering of substitutions follows the chain as printed. Names and notes keep the numbering of the source.

B1: KAZ-A54I: KAZ with single amino acid substitution A54I, SEQ ID NO: 6 (protein)
chain: FTLADFVGDWQQTAGYNQDQVLEQGGLSSLFQALGVSVTPIQKVVLSGENGLKIDIHVIIPYEGLSGFQMGLIEMIFKVVYPVDDHHFKIILHYGTLVIDGVTPNMIDYFGRPYPGIAVFDGKQITVTGTLWNGNKIYDERLINPDGSLLFRVTINGVTGWRLCENILA
B2: KAZ-V44I-A54I-Y138I: KAZ mutant with three amino acid substitutions V44I, A54I and Y138I, SEQ ID NO: 16 (protein)
chain: B1 chain with V44I, Y138I
B3: KAZ-V44I-A54I: KAZ mutant with two amino acid substitutions V44I and A54I, SEQ ID NO: 10 (protein)
chain: B1 chain with V44I
B4: KAZ-V44I: KAZ with single amino acid substitution V44I, SEQ ID NO: 4 (protein)
chain: B1 chain with V44I, I54A
B5: KAZ: wild 19 kDa catalytic protein of Oplophorus luciferase (19kOLase), amino acid sequence SEQ ID NO: 2 (protein, listed as Oplophorus gracilirostris)
chain: B1 chain with I54A
B6: KAZ-V44I-Y138I: KAZ mutant with two amino acid substitutions V44I and Y138I, SEQ ID NO: 12 (protein)
chain: B1 chain with V44I, I54A, Y138I
B7: KAZ-Y138I: KAZ with single amino acid substitution Y138I, SEQ ID NO: 8 (protein)
chain: B1 chain with I54A, Y138I
B8: KAZ-A54I-Y138I: KAZ mutant with two amino acid substitutions A54I and Y138I, SEQ ID NO: 14 (protein)
chain: B1 chain with Y138I

test: Substrate specificities of KAZ mutants (ZZ-fused, crude enzyme), 6h-f-CTZ; assay type: biochemical; settings: 1 μg substrate, integrated for 60 seconds
Experimental: (§1) The coelenterazine analogues used for substrate specificity studies were synthesized by the methods described in publications. Specifically, bis-coelenterazine was synthesized by the method described in Nakamura et al. (1997) Tetrahedron Lett. 38: 6405-6406; furimazine by the method described in Hall et al. (2012) ACS Chem. Biol. […]; and, 6h-coelenterazine, f-coelenterazine and 6h-f-coelenterazine by the methods described in Inouye et al (2013) Biochem. Biophys. Res. Commun. 437: 23-28.
(§2) DTT was added to the crude enzyme solutions obtained in EXAMPLE 17 at a final concentration of 1 mM and the mixtures were allowed to stand in an ice water for more than 5 hours in the same manner as Example 8. A luminescence reaction was started by the addition of 1 μL each of the crude enzyme solutions to 100 μL of TE containing 1 μg of coelenterazine (manufactured by JNC Corp.) or its analogues. The luminescence activities were determined using a luminometer (manufactured by Atto Inc.: AB2200) for 60 seconds, and the maximum intensity of luminescence (Imax) was shown as relative luminescence activity.

First: B1
Second: B2
The “Relative Luminescence Activity 6h-f-CTZ Int.” value of the first is lower: 2.0 for the first, 9.6 for the second.

Going from B3 to B4, the “Relative Luminescence Activity 6h-f-CTZ Int.” value falls from 4.0 to 0.7.

First: B5
Second: B6
The “Relative Luminescence Activity 6h-f-CTZ Int.” value of the first is lower: 0.7 for the first, 4.2 for the second.

Compared with B7, B8 is higher in “Relative Luminescence Activity 6h-f-CTZ Int.” value: 0.8 for the first, 5.7 for the second.

same assay, conditions: 1 μg substrate, maximum intensity of luminescence

Compared with B1, B2 is higher in “Relative Luminescence Activity 6h-f-CTZ Imax” value: 1.6 for the first, 9.5 for the second.

Going from B3 to B4, the “Relative Luminescence Activity 6h-f-CTZ Imax” value falls from 3.2 to 0.6.

First: B5
Second: B6
The “Relative Luminescence Activity 6h-f-CTZ Imax” value of the first is lower: 0.6 for the first, 3.6 for the second.

First: B7
Second: B8
The “Relative Luminescence Activity 6h-f-CTZ Imax” value of the first is lower: 0.6 for the first, 5.2 for the second.

test: Substrate specificities of KAZ mutants (ZZ-fused, crude enzyme), furimazine; assay type: biochemical; settings: 1 μg substrate, integrated for 60 seconds
Experimental: as §1, §2

First: B1
Second: B2
The “Relative Luminescence Activity Furimazine Int.” value of the first is lower: 2.1 for the first, 9.2 for the second.

Going from B3 to B4, the “Relative Luminescence Activity Furimazine Int.” value falls from 4.3 to 0.9.

First: B5
Second: B6
The “Relative Luminescence Activity Furimazine Int.” value of the first is lower: 0.5 for the first, 5.4 for the second.

First: B7
Second: B8
The “Relative Luminescence Activity Furimazine Int.” value of the first is lower: 0.8 for the first, 5.8 for the second.

same assay, conditions: 1 μg substrate, maximum intensity of luminescence

First: B1
Second: B2
The “Relative Luminescence Activity Furimazine Imax” value of the first is lower: 2.0 for the first, 10.6 for the second.

First: B3
Second: B4
The “Relative Luminescence Activity Furimazine Imax” value of the first is higher: 3.4 for the first, 0.6 for the second.

First: B5
Second: B6
The “Relative Luminescence Activity Furimazine Imax” value of the first is lower: 0.4 for the first, 5.1 for the second.

Going from B7 to B8, the “Relative Luminescence Activity Furimazine Imax” value rises from 0.6 to 5.9.

test: Luminescence activity of KAZ mutants (pCold II, E. coli) in supernatant and precipitate of crude enzyme solution; assay type: biochemical; settings: Table 3; pCold II, E. coli BL21; 5 μL precipitate; 0.5 μg coelenterazine; 60 seconds
Experimental: In order to express the KAZ mutants in E. coli, the recombinant plasmid prepared in EXAMPLE 3 was used. The E. coli BL21 strain (Novagen, Madison, Wis.) was used as a host cell. The BL21 strain carrying the recombinant plasmid was incubated in 5 mL of Luria-Bertani medium (hereinafter designated as LB medium) containing ampicillin (50 μg/mL) at 37° C. for 18 hours. This seed culture, 0.1 mL, was inoculated to 10 mL of LB medium and incubated for 3 hours, followed by cooling in an ice-water bath for 1 hour. IPTG was added to the culture medium at a final concentration of 1 mM, followed by incubation at 15° C. for further 20 hours. After completion of the incubation, 1 mL of the cultured medium was harvested by centrifugation at 10,000 rpm for 2 minutes. The thus collected E. coli cells were suspended in 0.5 mL of 30 mM Tris-HCl (pH 7.6)-10 mM EDTA (manufactured by Wako Pure Chemical Industries, Ltd.) (hereinafter designated as TE). The E. coli cells were disrupted by sonication for 3 seconds using a Branson Model 250 Sonifier (Danbury, Conn.) to give a crude enzyme solution. After 0.5 mL of the crude enzyme solution was further centrifuged at 10,000 rpm for 2 minutes to separate the supernatant from the precipitate, the precipitate was suspended in 0.5 mL of TE. Then 20 μL each of the supernatant and precipitate were analyzed by SDS-PAGE to confirm the presence or absence of soluble and insoluble proteins. The results are shown in FIG. 1, wherein M and 1 to 17 denote: M: molecular weight size markers; 1: KAZ; 2 KAZ-A4E; 3: KAZ-Q11R; 4: KAZ-Q18L; 5: KAZ-L27V; 6: KAZ-A33N; 7: KAZ-K43R; 8: KAZ-V44I; 9: KAZ-A54I; 10: KAZ-F68D; 11: KAZ-L72Q; 12: KAZ-M75K; 13: KAZ-I90V; 14: KAZ-P115E; 15: KAZ-Q124K; 16: KAZ-Y138I; 17: KAZ-N166R and 18: dnKAZ.
A luminescence reaction was started by the addition of 5 μL each of the supernatant and precipitate obtained in EXAMPLE 4 to 100 μL of TE containing 0.5 μg of coelenterazine (manufactured by JNC Corp.). The luminescence activity was measured for 60 seconds using a luminometer (manufactured by Atto Corp.: AB2200) and expressed in terms of relative luminescence activity (Imax).
To express the KAZ mutants with two amino acid substitutions and three amino acid substitutions in E. coli using a pCold II vector, the recombinant plasmid constructed in EXAMPLE 13 and pCold-V44I-KAZ, pCold-A54I-KAZ, pCold-Y138I-KAZ prepared in EXAMPLE 3 were used. The supernatant and precipitate of each crude enzyme solution were prepared in the same manner as EXAMPLE 4, using the E. coli BL21 starin (Novagen, Madison, Wis.) as a host cell. The supernatant and precipitate, 20 μL each, were subjected to SDS-PAGE analysis to confirm the presence or absence of soluble proteins and insoluble proteins. In FIG. 3, M and 1 to 9 are as follows. M: molecular weight markers; 1: dnKAZ; 2: KAZ; 3: KAZ-V44I-A54I; 4: KAZ-V44I-Y138I; 5: KAZ-A54I-Y138I; 6: KAZ-V44I-A54I-Y138I; 7: KAZ-V44I; 8: KAZ-A54I; and 9: KAZ-Y138I.
The luminescence activities of 5 μL each of the supernatant and precipitate obtained in EXAMPLE 14 were determined in the same manner as EXAMPLE 5. The luminescence activity was assayed with a luminometer (manufactured by Atto Inc.: AB2200) for 60 seconds, and the maximum intensity of luminescence (Imax) was shown as relative luminescence activity.

Going from B1 to B4, the “Relative Luminescence Activity (Imax) Precipitate” value falls from 13 to 0.6.

Going from B5 to B7, the “Relative Luminescence Activity (Imax) Precipitate” value rises from 0.1 to 1.4.

same assay, conditions: Table 3; pCold II, E. coli BL21; 5 μL supernatant; 0.5 μg coelenterazine; 60 seconds

Going from B1 to B4, the “Relative Luminescence Activity (Imax) Supernatant” value falls from 150 to 6.5.

First: B5
Second: B7
The “Relative Luminescence Activity (Imax) Supernatant” value of the first is lower: 1.0 for the first, 32 for the second.

same assay, conditions: Table 8; pCold II, E. coli BL21; 5 μL precipitate; coelenterazine; 60 seconds

Compared with B1, B2 is higher in “Relative Luminescence Activity (Imax) Precipitate” value: 13 for the first, 40 for the second.

Compared with B3, B4 is lower in “Relative Luminescence Activity (Imax) Precipitate” value: 5.8 for the first, 0.6 for the second.

First: B5
Second: B6
The “Relative Luminescence Activity (Imax) Precipitate” value of the first is lower: 0.1 for the first, 5.0 for the second.

First: B7
Second: B8
The “Relative Luminescence Activity (Imax) Precipitate” value of the first is lower: 1.4 for the first, 21 for the second.

same assay, conditions: Table 8; pCold II, E. coli BL21; 5 μL supernatant; coelenterazine; 60 seconds

First: B1
Second: B3
The “Relative Luminescence Activity (Imax) Supernatant” value of the first is lower: 151 for the first, 295 for the second.

Going from B4 to B5, the “Relative Luminescence Activity (Imax) Supernatant” value falls from 6.5 to 1.0.

First: B6
Second: B7
The “Relative Luminescence Activity (Imax) Supernatant” value of the first is higher: 71 for the first, 32 for the second.

In the case of B8, the “Relative Luminescence Activity (Imax) Supernatant” value is reported as 982.

For B2, the “Relative Luminescence Activity (Imax) Supernatant” value was 1,730.

same assay, conditions: pCold II crude enzyme solution; coelenterazine

With B1 the “Luminescence activity relative to that of dnKAZ” value was “approximately 1/12”.

same assay, conditions: pCold II, supernatant; coelenterazine (Table 8)

First: B3
Second: B6
The “Luminescence activity in the supernatants, fold higher as compared to the wild KAZ” value of the first is higher: 295 fold for the first, 71 fold for the second.

In the case of B8, the “Luminescence activity in the supernatants, fold higher as compared to the wild KAZ” value is reported as 982 fold.
